Test results taken from the supplement of paper PMC9170038.

Tested on: MS2 coat protein
Test: apparent KD of MS2 coat protein; designed switch direction (-1 OFF switch, 1 ON switch): -1; higher = weaker reporter binding
Method in brief: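 An oligonucleotide input, 200 uM small-molecule ligand, or no input was present during titration of SNAP-549-labelled MS2 coat protein, which was doubled from 0.7 or 1.5 nM to 3 µM. Designed RNA switches had been transcribed on Illumina chips by stalled E. coli RNA polymerase. Apparent KD per design is the median over clusters of curves fitted to normalised cluster fluorescence.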

[1] = Eterna round: R95, input ligand: FMN 200 uM
[2] = Eterna round: R95, input ligand: microRNA oligo, concentration not stated
[3] = Eterna round: R95, input ligand: none
[4] = input ligand: microRNA oligo, concentration not stated

Row | Sequence | apparent KD of MS2 coat protein [1] [nM] | apparent KD of MS2 coat protein [2] [nM] | apparent KD of MS2 coat protein [3] [nM] | apparent KD of MS2 coat protein (input ligand: FMN 200 uM) [nM] | apparent KD of MS2 coat protein (input ligand: none) [nM] | apparent KD of MS2 coat protein [4] [nM]
1 | AUAAAGAAUGUUAGGAUAUUGGUGAAUAGGCUGACUAAGAAGGAACAUGAGGAUCACCCAUGUAAAAUGGAAAA [Readima] (puzzle: Brourd's mod of Exclusion 4) | 66.7 | 23 | 29.1 |  |  | 
2 | AUAAAGUGAGGAUAUAUAAGACACGGUGAUACACCGUGAAAAUAGAAGGUACAUGAGGAUCACCCAUGUAGGGC [Mod of Anonveat 18 - Jieux - Exclusion 4] (Eterna round: R97, puzzle: Exclusion 4) |  |  |  | 33.6 | 29.4 | 
3 | AUAAAGUGAGGAUAUAUAAGACACGGUGAUACACCGUGAAAAUAGAAGGUACAUGAGGAUCACCCAUGUUGGGC [Mod of Anonveat 19 - Jieux - Exclusion 4] (Eterna round: R97, puzzle: Exclusion 4) |  |  |  | 50.2 | 53.7 | 
4 | AUAAAUCAUGUAGGAUAUGCGUAGCGAAGCUAUGCAGAAGGACAUGAGGAUCACCCAUGUCUUUCCGUCUGCGAACAGACGGAA [Mat - Exclusion NG 1 - Mod of JL - D43] (Eterna round: R96, puzzle: Exclusion NG 1) |  |  |  | 199 | 31.6 | 20
5 | AUAACAAGCUUUUUUUUCGUCGUAUAUGACGCUCGAGUCACAUGAGGAUCACCCAUGUCUUCCUGUUUGAUUGUUGA [JR_SV3TOV2_Sub057] (puzzle: Sensor v3, turn-off variant 2) | 167 | 154 | 173 |  |  | 
6 | AUAAGUAUGAAGGAUAUGCGCGAGCCAGCUUGGGCAGAAGGUUAAACAUGAGGAUCACCCAUGUGGAAAUCCGA [Eternabot (Original) Solution 34] (Eterna round: R97, puzzle: Exclusion 6) |  |  |  | 32.9 | 21.7 | 
7 | AUAAUGUAAGGAUAUCAGUCGACUAGCCUCGGCUAGUCGACUGAGAAGGUACAUGAGGAUCACCCAUGUGAAUA [E4/16-A2] (Eterna round: R97, puzzle: Exclusion 4) |  |  |  | 228 | 52.1 | 
8 | AUAAUGUAAGGAUAUCAGUCGACUAGCUUCGGCUAGUCGACUGAGAAGGUACAUGAGGAUCACCCAUGUGGUUC [E4/11-A1] (Eterna round: R97, puzzle: Exclusion 4) |  |  |  | 118 | 985 | 
9 | AUAAUGUCAGGAUAUCAGAAGUUUAACUUCGGUUAAACUUCUGAGAAGGGACAUGAGGAUCACCCAUGUGAUUA [E4/3-B1] (Eterna round: R97, puzzle: Exclusion 4) |  |  |  | 109 | 1330 | 
10 | AUAAUUAAUCGAGGAUAUCAGCACGAUUAGUGCUGAGAAGGCGACAUGAGGAUCACCCAUGUGAUCAAUUAAUAUUAAUAUUAU [ENG1/11-C1] (Eterna round: R96, puzzle: Exclusion NG 1) |  |  |  | 1630 | 808 | 626
11 | AUAAUUAAUGCAGGAUAUCAGCACGAUUAGUGCUGAGAAGGGCACAUGAGGAUCACCCAUGUGAUCAAUUAAUAUUAAUAUUAU [ENG1/11-D1] (Eterna round: R96, puzzle: Exclusion NG 1) |  |  |  | 279 | 61.6 | 53
12 | AUACAACAUGAGGAUCACCCAUGUGAGGAUAUGCGAUAUAUCAUCAUCAUAAUCAUAAGCAGAAGGCACAACAU [Another One] (puzzle: Exclusion 1) | 35.7 | 35.6 | 34 |  |  | 
13 | AUACAGGAUGUCAGGAUAUGUUGUAGGUUCCGACGACAGAAGGGACAUGAGGAUCACCCAUGUAGGCCUUUGCU [BmEX4 C.7] (Eterna round: R97, puzzle: Brourd's mod of Exclusion 4) |  |  |  | 31.4 | 15.1 | 
14 | AUAUAACAUGAGGAUCACCCAUGUCAGGAUAUGCAGAACAAGAACAAGACAAGACAGAGCAGAAGGGACAAUAU [Ex 1 M4] (puzzle: Exclusion 1) | 43.8 | 34.9 | 48.1 |  |  | 
15 | AUAUAGCGAGGAUAUACAUGAGGAUCACCCAUGUAAUAAAUAUAUAUAUUUAUAUUAUGUAGAAGGCGCUAUAU [-18.5, -17.2 kcal, 39% A] (Eterna round: R97, puzzle: Exclusion 3) |  |  |  | 30.3 | 14.5 | 
16 | AUAUCGUGAGGAUAUCCAAUAUAUGACAUGAGGAUCACCCAUGUUUCCACUCGUACCUCCGGAGAAGGCACAGUUA [Ex5 #72] (Eterna round: R97, puzzle: Exclusion 5) |  |  |  | 23.9 | 24.5 | 
17 | AUAUUAAUAGUAAGGAUAUGCGUAUAUAUAGUUAUGCAGAAGGUACAUGAGGAUCACCCAUGUAUUAAUGUGUA [LRO-BmodExc4-03-Oppy's Opus] (Eterna round: R97, puzzle: Brourd's mod of Exclusion 4) |  |  |  | 14.9 | 14.3 | 

Row | Sequence | apparent KD of MS2 coat protein [1] [nM] | apparent KD of MS2 coat protein [2] [nM] | apparent KD of MS2 coat protein [3] [nM] | apparent KD of MS2 coat protein (input ligand: FMN 200 uM) [nM] | apparent KD of MS2 coat protein (input ligand: none) [nM] | apparent KD of MS2 coat protein [4] [nM]
18 | AUAUUAGCAGGAUAUAUCCGGGAUAACAUGAGGAUCACCCAUGUGACCGCUUGAUAUCCUAUAGAAGGGCUUUAUA [Mod of ViennaUCT 29 - Jieux - Exclusion 5] (Eterna round: R97, puzzle: Exclusion 5) |  |  |  | 35.3 | 20.6 | 
19 | AUAUUGUGAGGAUAUGAACUUAGUAUCGAAAGAUACUAAGUACAGAAGGCACAUGAGGAUCACCCAUGUUUCUC [Long static hairpin v2] (Eterna round: R97, puzzle: Exclusion 4) |  |  |  | 418 | 85.7 | 
20 | AUCAGCUCGUGAGGAUAUACAUGCGUGCUUCGGCACGUAUGAUAGAUCACAUGAGGAUCACCCAUGUAGAAGGCACGAGCUGAU [ENG2/4-A3] (Eterna round: R96, puzzle: Exclusion NG 2) |  |  |  | 15.1 | 13.4 | 12.1
21 | AUCAGCUCGUGAGGAUAUAUUAACAUGAGGAUCACCCAUGUAAGAUCAGGCUUCGGCCAAUGUUAAUAGAAGGCACGAGCUGAU [ENG2/12-A2] (Eterna round: R96, puzzle: Exclusion NG 2) |  |  |  | 239 | 170 | 56.3
22 | AUCAGUCGAGGAUAUACGAUCGUGCUUCGGCACGUAAGAUCACAUGAGGAUCACCCAUGUAGAAGGCGACUGAU [Mod 8 - Jieux - Exclusion 2] (Eterna round: R97, puzzle: Exclusion 2) |  |  |  | 463 | 30.4 | 
23 | AUCAUGUAAGGAUAUCUUACAUGUGACUUCGGUCACUGUUCAGAGAAGGUACAUGAGGAUCACCCAUGUAGAAC [Ex4-3: 45] (puzzle: Exclusion 4) |  | 18.5 |  |  |  | 
24 | AUCCUACAUGAGGAUCACCCAUGUCAGGAUAUCCAAGAAAUCUGGCCGUAUCGGCCAGGGAGAAGGGACAUGGC [jl-ex1-4.66 ViennaUCT mod] (Eterna round: R97, puzzle: Exclusion 1) |  |  |  | 85.6 | 28.4 | 
25 | AUCCUGCGAGGAUAUACAUAAUUUUUUUCGUUUUGACUCGAACAUGAGGAUCACCCAUGUAGAAGGUGCUUCAC [JR_Ex2_Sub027] (Eterna round: R97, puzzle: Exclusion 2) |  |  |  | 122 | 94.8 | 
26 | AUCGUGCAGCUUUGCUGUACGAGUACAUGAGGAUCACCCAUGUAGGAUAUGGUACGCAAAGCGUGCUAGAAGGAUAUGAGAUUA [Mat - Exclusion NG 3 - Mod of JL - D96] (Eterna round: R96, puzzle: Exclusion NG 3) |  |  |  | 24.2 | 28.8 | 21.5
27 | AUCGUGUCAGGAUAUUGAAGUUCCGGGCAGUCCACGGAGCUCGAGAAGGGACAUGAGGAUCACCCAUGUCUCAU [Eternabot (L1) Solution 84] (Eterna round: R97, puzzle: Exclusion 4) |  |  |  | 21.4 | 18.6 | 
28 | AUCUUGUCAGGAUAUCUGACAAGUGACGAAAGUCACAGUUCAGAGAAGGUACAUGAGGAUCACCCAUGUAGAAC [Ex4-3: 40] (puzzle: Exclusion 4) |  | 19.1 |  |  |  | 
29 | AUGAGCAGACGGAGAUCCAACAUGAGGAUCACCCAUGUCUCAUAAGCUUUUUGUUCAUCUUAUUGUACCUUGGUGCU [Mat - Sensor v3 - turn-off var 1 - JL Mod - D22] (puzzle: Sensor v3, turn-off variant 1) | 53.7 | 12.6 | 67.7 |  |  | 
30 | AUGCGACAUGAGGAUCACCCAUGUGAGGAUAUUCGAAUGCACAAUUCGGUGUGAUAGAGGAGAAGGCGCAGGUA [EX1 #19] (Eterna round: R97, puzzle: Exclusion 1) |  |  |  | 154 | 243 | 
31 | AUGGGUCCUCUCGGAGCGACAUGAGGAUCACCCAUGUGUGUUGAGGAUAUCCACUGCUAAGGACGGGAGAAGGCAGUGUACUGU [Ex NG3 #85] (Eterna round: R96, puzzle: Exclusion NG 3) |  |  |  | 29.8 | 32.9 | 23.5
32 | AUGGUACAUGAGGAUCACCCAUGUUAGGAUAUCGCGUGAGGUAAAACUUACACACACACGAGAAGGGACGACAU (puzzle: Exclusion 1) |  | 55.1 |  |  |  | 
33 | AUGUAACAUGAGGAUCACCCAUGUGAGGAUAUGCGAAUGAAUGAAUGAAUGAAUGUUAGCAGAAGGCACAAGUA [Default title] (Eterna round: R97, puzzle: Exclusion 1) |  |  |  | 59.6 | 44.3 | 
34 | AUGUAGUAAGGAUAUAGAAAGAAGGAGUAAGAUAGAGAGUUCUAGAAGGUACAUGAGGAUCACCCAUGUUGGAG [JR_Exclu4_Sub081] (puzzle: Exclusion 4) |  | 22.2 |  |  |  | 
